{"source": "patent US20250257149A1", "about": "(GLYCOTOPE, published 2025)", "binders": {"B1": {"name": "humanized antibody PankoMab (with Fab glycosylation) (antibody, human IgG1, kappa)", "heavy": "not shown", "light": "DIVMTQSPLSNPVTPGEPASISCRSSKSLLHSNGITYFFWYLQKPGQSPQLLIYQMSNLASGVPDRFSGSGSGTDFTLRISRVEAEDVGVYYCAQNLELPPTFGQGTKVEIKRTVAAPSVFIFPPSDEQLKSGTASVVCLLNNFYPREAKVQWKVDNALQSGNSQESVTEQDSKDSTYSLSSTLTLSKADYEKHKVYACEVTHQGLSSPVTKSFNRGEC", "modifications": "N-glycan on Asn54 (Kabat/EU numbering; amino acid position 57) in CDR-H2", "notes": "IgG1 kappa made in NM-H9D8 cells (for the FcγRIIIa assay also in NM-H9D8-E6Q12, low fucose); also called PM; PankoMab-GEX®"}, "B2": {"name": "humanized antibody PankoMab N54Q (without Fab glycosylation) (antibody, human IgG1, kappa)", "heavy": "not shown", "light": "B1 light", "notes": "IgG1 kappa; Made in NM-H9D8 cells (for the FcγRIIIa assay also in NM-H9D8-E6Q12, low fucose); also called PM-N54Q; PM N54Q w/o Fab glyc"}, "B3": {"name": "PankoMab N54D (antibody, V domains shown)", "VH": "EVQLVESGGGLVQPGGSMRLSCVASGFPFSNYWMNWVRQAPGKGLEWVGEIRLKSNDYTTHYAESVKGRFTISRDDSKNSLYLQMNSLKTEDTAVYYCTRHYYFDYWGQGTLVTVSS", "VL": "DIVMTQSPLSNPVTPGEPASISCRSSKSLLHSNGITYFFWYLQKPGQSPQLLIYQMSNLASGVPDRFSGSGSGTDFTLRISRVEAEDVGVYYCAQNLELPPTFGQGTKVEIKR", "notes": "Light chain unchanged; also called PM-N54D"}}, "key": {"[1]": {"target": "T1, TA-MUC1 (tumor-associated MUC1) on human tumor cell lines (human, UniProt P15941 24-1255, aberrant tumor-associated O-glycosylation)", "T1 construct": "whole, on cells; also called cellular TA-MUC1; cell surface TA-MUC1", "T1 sequence (P15941 24-1255)": "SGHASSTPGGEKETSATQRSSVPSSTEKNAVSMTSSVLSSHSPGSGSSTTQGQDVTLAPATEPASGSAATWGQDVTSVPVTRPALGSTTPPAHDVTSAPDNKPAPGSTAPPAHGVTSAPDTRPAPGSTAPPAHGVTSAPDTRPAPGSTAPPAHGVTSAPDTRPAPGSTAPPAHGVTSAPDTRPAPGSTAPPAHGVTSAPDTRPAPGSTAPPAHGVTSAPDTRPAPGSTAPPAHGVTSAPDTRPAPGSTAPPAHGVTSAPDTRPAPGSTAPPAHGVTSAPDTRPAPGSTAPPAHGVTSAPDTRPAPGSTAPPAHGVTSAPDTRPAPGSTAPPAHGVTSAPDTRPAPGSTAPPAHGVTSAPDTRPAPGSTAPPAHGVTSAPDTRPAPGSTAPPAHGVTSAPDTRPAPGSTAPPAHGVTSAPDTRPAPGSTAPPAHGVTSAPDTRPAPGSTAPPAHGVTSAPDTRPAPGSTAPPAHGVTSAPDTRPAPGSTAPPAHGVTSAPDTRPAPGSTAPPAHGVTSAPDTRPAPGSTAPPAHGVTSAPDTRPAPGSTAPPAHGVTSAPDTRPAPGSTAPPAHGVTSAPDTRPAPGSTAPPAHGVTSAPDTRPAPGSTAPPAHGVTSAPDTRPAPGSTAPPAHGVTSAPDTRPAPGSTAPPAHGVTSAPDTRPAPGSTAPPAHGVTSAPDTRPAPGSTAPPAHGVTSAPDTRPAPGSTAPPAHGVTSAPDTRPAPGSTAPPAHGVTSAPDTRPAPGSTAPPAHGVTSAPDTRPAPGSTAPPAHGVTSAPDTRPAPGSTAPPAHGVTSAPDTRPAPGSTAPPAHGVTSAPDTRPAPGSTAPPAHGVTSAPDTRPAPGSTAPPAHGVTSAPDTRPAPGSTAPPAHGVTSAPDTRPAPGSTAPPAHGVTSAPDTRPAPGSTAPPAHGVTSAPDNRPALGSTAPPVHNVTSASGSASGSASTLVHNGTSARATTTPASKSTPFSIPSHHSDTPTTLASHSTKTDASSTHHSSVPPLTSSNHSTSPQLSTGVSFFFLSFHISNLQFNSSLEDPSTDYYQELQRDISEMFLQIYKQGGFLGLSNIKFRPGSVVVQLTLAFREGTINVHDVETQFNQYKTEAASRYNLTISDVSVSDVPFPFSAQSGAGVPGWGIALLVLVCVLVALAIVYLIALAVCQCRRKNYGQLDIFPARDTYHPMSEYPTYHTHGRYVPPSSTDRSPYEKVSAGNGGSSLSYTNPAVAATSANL", "assay": "saturation binding of 111In-labelled antibody on MCF-7 cells", "procedure": "(§1) Binding of the Fab-deglycosylated version of the MUC1-specific antibody PankoMab (PM-N54Q) on TA-MUC-1 positive human tumor cell lines was evaluated using radiolabeled antibodies by saturated binding analysis on the human mamma carcinoma cell lines ZR-75-1 and MCF-7 in comparison to Fab-glycosylated PankoMab-GEX®. The antibodies were chelated with a 12-fold molar excess of p-SCN-Benzyl-DTPA in 50 mM sodium carbonate, 150 mM NaCl, pH 8.7, for 2 h at 37° C., followed by over-night incubation at 2-8° C. Free chelator was removed over desalting columns and dead-end filtration (50 kDa cut-off, 6× buffer exchange to PBS). The chelated antibodies were radiolabeled with carrier-free ¹¹¹In (2 μCi/μg antibody) for 1 h at 37° C. in 6 mM phosphate, 1.6 mM KCl, 80 mM NaCl, 0.2 M Na-acetate, 0.1 M HCl. The preparations were neutralized by addition of 8-9 fold volume of 10× concentrated PBS. About 1/50 volume of fetal bovine serum were added to the neutralized labelled antibody preparation. Per cell binding approach 1*10⁶ cells were used. Several concentrations of labelled antibodies were added to the pelleted cells (30-1000 ng/200 μL in 1% BSA/PBS). The resuspended cell-antibody mixtures were measured in a gamma-counter and incubated 1 h at 4° C. […] The cell pellet was then measured for bound ¹¹¹In-labelled antibody in a gamma counter. […]"}, "[2]": {"target": "T1, TA-MUC1 (tumor-associated MUC1) on …", "assay": "saturation binding of 111In-labelled antibody on ZR-75-1 cells", "procedure": "as §1"}, "[3]": {"target": "T1, TA-MUC1 (tumor-associated MUC1) on …", "assay": "flow cytometry on HSC-4 cells, detection with PE-conjugated goat anti-human IgG", "procedure": "(§2) N54Q and N54D were transiently expressed and purified by protein A chromatography. Binding of the two variants to cell surface TA-MUC1 was compared to PM with Fab glycosylation using two different carcinoma cell lines. The tongue squamous cell carcinoma line HSC-4 expresses TA-MUC1 to a medium degree and the ovarian carcinoma cell line CaOV-3 to a high degree. Tumor cells were incubated with antibodies in serial dilutions and bound antibodies were detected using a Phycoerythrin-conjugated goat anti-human IgG (heavy and light chain) antibody. A human IgG control was included to control for background staining. Binding was analyzed by flow cytometry."}, "[4]": {"target": "T1, TA-MUC1 (tumor-associated MUC1) on …", "assay": "flow cytometry on CaOV-3 cells, detection with PE-conjugated goat anti-human IgG", "procedure": "as §2"}, "[5]": {"target": "T1, TA-MUC1 (tumor-associated MUC1) on …", "assay": "saturation binding of 111In-labelled antibody on ZR-75-1 and MCF-7 cells", "procedure": "as §1"}}}
{"binder": "B1", "values": [{"measurement": "Ka", "setting": "[1]", "result": "3e+07", "unit": "M⁻¹"}, {"measurement": "Ka", "setting": "[2]", "result": "1.2e+07", "unit": "M⁻¹"}, {"measurement": "EC50 (read off the curve)", "setting": "[3]", "result": "~300", "unit": "ng/mL"}, {"measurement": "EC50 (read off the curve)", "setting": "[4]", "result": "~3", "unit": "ng/mL"}]}
{"binder": "B2", "values": [{"measurement": "Ka", "setting": "[1]", "result": "7.8e+07", "unit": "M⁻¹"}, {"measurement": "Ka", "setting": "[2]", "result": "3.4e+07", "unit": "M⁻¹"}, {"measurement": "fold higher binding than PankoMab-GEX®", "setting": "[5]", "result": "> 2.5", "unit": "fold"}, {"measurement": "EC50 (read off the curve)", "setting": "[3]", "result": "~100", "unit": "ng/mL"}, {"measurement": "EC50 (read off the curve)", "setting": "[4]", "result": "~2", "unit": "ng/mL"}]}
{"binder": "B3", "values": [{"measurement": "EC50 (read off the curve)", "setting": "[4]", "result": "~4", "unit": "ng/mL"}]}
